Common to all, as to test: pulldown
Data set [1] has as its target T1, NCU09742 (Neurospora crassa) (UniProt Q7SEI3).
T1 sequence: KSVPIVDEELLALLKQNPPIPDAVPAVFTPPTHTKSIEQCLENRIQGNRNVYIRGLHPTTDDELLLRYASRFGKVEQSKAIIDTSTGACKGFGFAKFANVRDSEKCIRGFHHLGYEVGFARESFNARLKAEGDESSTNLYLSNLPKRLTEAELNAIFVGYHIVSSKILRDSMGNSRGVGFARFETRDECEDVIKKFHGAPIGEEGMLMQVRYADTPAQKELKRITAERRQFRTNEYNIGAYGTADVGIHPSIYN
Conditions: 20 nM protein, 1.5 uM RNA pool; 20 mM HEPES pH 7.8, 70 mM KCl, 10 mM NaCl, 10% glycerol, 2 mM DTT, 0.1 ug/uL BSA; 30 min, 4 C.

Data set [2] has as its target T2, rbm14 (Xenopus tropicalis) (UniProt A0A8J0QJ94).
T2 sequence: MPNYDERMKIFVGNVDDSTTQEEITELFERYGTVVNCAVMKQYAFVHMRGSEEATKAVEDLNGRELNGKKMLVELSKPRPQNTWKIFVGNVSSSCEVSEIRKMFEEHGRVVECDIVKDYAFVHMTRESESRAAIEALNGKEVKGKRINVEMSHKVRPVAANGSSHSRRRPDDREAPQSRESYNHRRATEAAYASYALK
Conditions: 20 nM protein, 1.5 uM RNA pool; 20 mM HEPES pH 7.8, 70 mM KCl, 10 mM NaCl, 10% glycerol, 2 mM DTT, 0.1 ug/uL BSA; 30 min, 4 C.

Data set [3] addresses T3, LmjF.18.0190 (Leishmania major) (UniProt Q4QE23).
T3 sequence: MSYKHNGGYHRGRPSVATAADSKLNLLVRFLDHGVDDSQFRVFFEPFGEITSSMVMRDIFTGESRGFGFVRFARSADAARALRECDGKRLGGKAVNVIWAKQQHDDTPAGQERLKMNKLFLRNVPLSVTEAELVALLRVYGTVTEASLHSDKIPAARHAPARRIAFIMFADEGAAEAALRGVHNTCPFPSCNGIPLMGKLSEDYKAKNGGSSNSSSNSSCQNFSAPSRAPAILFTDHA
Conditions: 20 nM protein, 1.5 uM RNA pool; 20 mM HEPES pH 7.8, 70 mM KCl, 10 mM NaCl, 10% glycerol, 2 mM DTT, 0.1 ug/uL BSA; 30 min, 4 C.

Data set [4] has as its target T4, LmjF.27.2100 (Leishmania major) (UniProt E9ADJ0).
T4 sequence: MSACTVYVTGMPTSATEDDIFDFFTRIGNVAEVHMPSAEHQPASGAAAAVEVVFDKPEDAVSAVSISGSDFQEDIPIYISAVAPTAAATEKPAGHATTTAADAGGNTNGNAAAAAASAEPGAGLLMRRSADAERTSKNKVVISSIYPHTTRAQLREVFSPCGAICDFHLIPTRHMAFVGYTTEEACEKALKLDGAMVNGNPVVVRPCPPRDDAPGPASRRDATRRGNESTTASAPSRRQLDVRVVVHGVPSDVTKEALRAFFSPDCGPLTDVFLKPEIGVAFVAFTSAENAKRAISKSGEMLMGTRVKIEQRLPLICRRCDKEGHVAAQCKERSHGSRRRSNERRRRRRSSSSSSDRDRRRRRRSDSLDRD
Conditions: 20 nM protein, 1.5 uM RNA pool; 20 mM HEPES pH 7.8, 70 mM KCl, 10 mM NaCl, 10% glycerol, 2 mM DTT, 0.1 ug/uL BSA; 30 min, 4 C.

Data set [5] deals with T5, Hrb87F (Drosophila melanogaster) (UniProt P48810).
T5 sequence: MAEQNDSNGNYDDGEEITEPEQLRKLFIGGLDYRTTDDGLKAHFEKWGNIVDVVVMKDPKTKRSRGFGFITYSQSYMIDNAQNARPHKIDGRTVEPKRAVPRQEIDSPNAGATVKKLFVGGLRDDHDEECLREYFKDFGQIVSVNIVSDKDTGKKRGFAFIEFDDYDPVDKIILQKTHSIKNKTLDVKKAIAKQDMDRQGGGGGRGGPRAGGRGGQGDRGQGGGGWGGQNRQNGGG
Conditions: 20 nM protein, 1.5 uM RNA pool; 20 mM HEPES pH 7.8, 70 mM KCl, 10 mM NaCl, 10% glycerol, 2 mM DTT, 0.1 ug/uL BSA; 30 min, 4 C (protocol of this paper; not …); cited from earlier work.

The next data set has as its target hnrnpa0a (Danio rerio) (UniProt Q6NYB0). The conditions noted are these: 20 nM protein, 1.5 uM RNA pool; 20 mM HEPES pH 7.8, 70 mM KCl, 10 mM NaCl, 10% glycerol, 2 mM DTT, 0.1 ug/uL BSA; 30 min, 4 C.
The target in a further data set is T6, tardbpl (Danio rerio) (UniProt A0A8M1PDP8).
T6 sequence: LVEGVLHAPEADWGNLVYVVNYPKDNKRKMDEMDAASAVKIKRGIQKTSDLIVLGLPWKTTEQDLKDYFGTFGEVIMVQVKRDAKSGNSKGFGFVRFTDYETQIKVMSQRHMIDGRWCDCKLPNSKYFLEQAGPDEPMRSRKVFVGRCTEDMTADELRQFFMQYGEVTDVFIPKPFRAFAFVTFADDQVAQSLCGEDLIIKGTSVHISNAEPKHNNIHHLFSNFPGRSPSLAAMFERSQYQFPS
The conditions noted are these: 20 nM protein, 1.5 uM RNA pool; 20 mM HEPES pH 7.8, 70 mM KCl, 10 mM NaCl, 10% glycerol, 2 mM DTT, 0.1 ug/uL BSA; 30 min, 4 C.

Data set [6] deals with T7, aret (Drosophila melanogaster) (UniProt E1JHG6).
T7 sequence: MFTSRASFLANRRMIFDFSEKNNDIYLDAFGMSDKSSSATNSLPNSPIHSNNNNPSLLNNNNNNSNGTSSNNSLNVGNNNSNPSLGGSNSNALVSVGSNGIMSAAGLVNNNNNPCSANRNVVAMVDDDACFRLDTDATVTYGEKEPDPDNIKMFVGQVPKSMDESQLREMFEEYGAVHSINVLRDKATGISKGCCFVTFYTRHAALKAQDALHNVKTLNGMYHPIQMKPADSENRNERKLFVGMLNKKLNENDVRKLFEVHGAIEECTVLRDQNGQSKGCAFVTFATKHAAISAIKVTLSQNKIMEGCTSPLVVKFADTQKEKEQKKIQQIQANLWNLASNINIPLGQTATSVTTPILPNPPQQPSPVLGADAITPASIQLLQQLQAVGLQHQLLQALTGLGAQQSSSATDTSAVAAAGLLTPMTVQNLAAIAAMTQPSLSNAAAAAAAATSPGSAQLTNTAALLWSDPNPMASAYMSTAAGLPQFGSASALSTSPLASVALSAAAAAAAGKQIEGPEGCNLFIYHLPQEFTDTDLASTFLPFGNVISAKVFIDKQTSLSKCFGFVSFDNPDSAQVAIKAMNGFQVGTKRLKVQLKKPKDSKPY
The conditions noted are these: 20 nM protein, 1.5 uM RNA pool; 20 mM HEPES pH 7.8, 70 mM KCl, 10 mM NaCl, 10% glycerol, 2 mM DTT, 0.1 ug/uL BSA; 30 min, 4 C (protocol of this paper; not …); cited from earlier work.

The target of data set [7] is T8, RNPC3 ins163_E (Gallus gallus) (UniProt A0A8V0ZU58).
T8 sequence: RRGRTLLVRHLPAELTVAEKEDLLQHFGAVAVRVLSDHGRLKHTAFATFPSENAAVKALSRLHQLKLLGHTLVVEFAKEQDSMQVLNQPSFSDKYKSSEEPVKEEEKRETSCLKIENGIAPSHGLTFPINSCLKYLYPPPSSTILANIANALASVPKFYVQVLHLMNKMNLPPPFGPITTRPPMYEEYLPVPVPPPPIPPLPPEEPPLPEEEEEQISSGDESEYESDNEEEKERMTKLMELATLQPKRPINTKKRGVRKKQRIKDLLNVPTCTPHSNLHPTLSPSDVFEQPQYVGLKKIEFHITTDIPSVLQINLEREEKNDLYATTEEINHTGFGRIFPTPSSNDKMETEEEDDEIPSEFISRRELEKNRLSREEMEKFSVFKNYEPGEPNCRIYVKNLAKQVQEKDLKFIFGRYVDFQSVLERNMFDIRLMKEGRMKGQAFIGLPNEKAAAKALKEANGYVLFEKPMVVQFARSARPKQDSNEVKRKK
Conditions: 20 nM protein, 1.5 uM RNA pool; 20 mM HEPES pH 7.8, 70 mM KCl, 10 mM NaCl, 10% glycerol, 2 mM DTT, 0.1 ug/uL BSA; 30 min, 4 C.

The source of these data is PMC12990809.

hnrnpa0a (Danio rerio), sequence (Q6NYB0 entry or part of it): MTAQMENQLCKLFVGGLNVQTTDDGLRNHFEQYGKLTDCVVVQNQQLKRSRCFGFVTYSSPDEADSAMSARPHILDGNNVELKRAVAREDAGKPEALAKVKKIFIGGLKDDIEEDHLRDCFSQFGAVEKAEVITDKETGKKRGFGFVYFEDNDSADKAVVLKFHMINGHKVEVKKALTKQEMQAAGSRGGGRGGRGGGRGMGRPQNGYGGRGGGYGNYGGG

Take AUUAUUA [RNAcompete motif RNCMPT00676]: in data set [1], the binding signal (z-score (mean of top ten 7-mers)) was 9.27.

With CGACGA [RNAcompete motif RNCMPT00514], in data set [2], the binding signal (z-score (mean of top ten 7-mers)) is 10.1.

Take CUCAUUU [RNAcompete motif RNCMPT00687]: the binding signal (z-score (mean of top ten 7-mers)) in data set [3] was found to be 20.6.

GGAGGA [RNAcompete motif RNCMPT00667] gave a binding signal (z-score (mean of top ten 7-mers)) in data set [4] of 6.1.

Consider GGUAGGG [RNAcompete motif RNCMPT00029], for which the binding signal (z-score (mean of top ten 7-mers)) in data set [5] is 13.4.

UAGGA [RNAcompete motif RNCMPT00677]: the binding signal (z-score (mean of top ten 7-mers)) with hnrnpa0a (Danio rerio) stood at 9.94.

UGAAUG [RNAcompete motif RNCMPT00683] returned a binding signal (z-score (mean of top ten 7-mers)) with tardbpl (Danio rerio) of 11.3.

For the substance UNUGUGU [RNAcompete motif RNCMPT00003], the binding signal (z-score (mean of top ten 7-mers)) in data set [6] is 21.4.

In turn, UUACGUA [RNAcompete motif RNCMPT00630] displayed a binding signal (z-score (mean of top ten 7-mers)) in data set [7] of 6.68.
